Here are results for one substance from publication PMC9267027.

In this assay the target is Amy117, neopullulanase (NPase) from B. pseudofirmus 703 (B. pseudofirmus 703). In words: AUC; sedimentation velocity, 50 mM Na2HPO4-NaH2PO4 buffer pH 7.0, 20 °C, 38,000 rpm, absorbance at 280 nm, c(s) model in SEDFIT; oligomeric state.

Values joined by “and” are separate entries in the source; they are usually repeats but may differ in a detail not shown here. Equal values may be shown once.

On to “Amy117, neopullulanase (NPase) from B. pseudofirmus 703 (enzyme)”, for which the percent as a tetramer worked out at 3.3%; the percent in the dimerized form stood at 68.7%; the percent in the monomeric form was 24.3%; the stoichiometry N is 2 and 4.
